The record followed here is PMC9813255 (2023).

In one test the target is T1, GST-Atxn1-86Q (UniProt P54253 1-815).
T1 chain: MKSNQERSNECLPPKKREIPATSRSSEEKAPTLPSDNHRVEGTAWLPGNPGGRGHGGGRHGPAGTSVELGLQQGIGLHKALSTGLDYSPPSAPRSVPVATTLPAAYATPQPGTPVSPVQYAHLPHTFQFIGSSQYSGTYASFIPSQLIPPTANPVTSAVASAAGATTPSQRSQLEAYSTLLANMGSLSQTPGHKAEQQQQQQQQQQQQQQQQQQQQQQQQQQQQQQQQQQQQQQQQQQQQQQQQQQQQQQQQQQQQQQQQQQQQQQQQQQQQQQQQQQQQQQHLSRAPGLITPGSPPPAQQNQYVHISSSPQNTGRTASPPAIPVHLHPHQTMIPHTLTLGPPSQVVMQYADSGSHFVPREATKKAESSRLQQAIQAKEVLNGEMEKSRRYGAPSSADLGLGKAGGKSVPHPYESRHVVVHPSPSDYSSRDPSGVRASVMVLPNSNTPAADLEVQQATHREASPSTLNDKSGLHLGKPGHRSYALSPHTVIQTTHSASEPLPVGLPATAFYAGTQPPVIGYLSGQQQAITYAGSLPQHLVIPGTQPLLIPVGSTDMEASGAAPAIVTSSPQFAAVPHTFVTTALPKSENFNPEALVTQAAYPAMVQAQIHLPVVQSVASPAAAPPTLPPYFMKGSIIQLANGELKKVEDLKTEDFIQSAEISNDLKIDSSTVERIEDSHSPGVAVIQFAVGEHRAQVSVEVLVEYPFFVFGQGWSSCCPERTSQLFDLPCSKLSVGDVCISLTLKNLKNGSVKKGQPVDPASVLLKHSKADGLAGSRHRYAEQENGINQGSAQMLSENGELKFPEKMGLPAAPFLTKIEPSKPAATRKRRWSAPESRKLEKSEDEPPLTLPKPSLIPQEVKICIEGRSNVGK
Kind of test: SPR. For orientation: SPR reads the build-up and loss of mass on a sensor chip optically.

Another test deals with T2, GST-Atxn1-33Q (UniProt P54253 1-815).
T2 chain: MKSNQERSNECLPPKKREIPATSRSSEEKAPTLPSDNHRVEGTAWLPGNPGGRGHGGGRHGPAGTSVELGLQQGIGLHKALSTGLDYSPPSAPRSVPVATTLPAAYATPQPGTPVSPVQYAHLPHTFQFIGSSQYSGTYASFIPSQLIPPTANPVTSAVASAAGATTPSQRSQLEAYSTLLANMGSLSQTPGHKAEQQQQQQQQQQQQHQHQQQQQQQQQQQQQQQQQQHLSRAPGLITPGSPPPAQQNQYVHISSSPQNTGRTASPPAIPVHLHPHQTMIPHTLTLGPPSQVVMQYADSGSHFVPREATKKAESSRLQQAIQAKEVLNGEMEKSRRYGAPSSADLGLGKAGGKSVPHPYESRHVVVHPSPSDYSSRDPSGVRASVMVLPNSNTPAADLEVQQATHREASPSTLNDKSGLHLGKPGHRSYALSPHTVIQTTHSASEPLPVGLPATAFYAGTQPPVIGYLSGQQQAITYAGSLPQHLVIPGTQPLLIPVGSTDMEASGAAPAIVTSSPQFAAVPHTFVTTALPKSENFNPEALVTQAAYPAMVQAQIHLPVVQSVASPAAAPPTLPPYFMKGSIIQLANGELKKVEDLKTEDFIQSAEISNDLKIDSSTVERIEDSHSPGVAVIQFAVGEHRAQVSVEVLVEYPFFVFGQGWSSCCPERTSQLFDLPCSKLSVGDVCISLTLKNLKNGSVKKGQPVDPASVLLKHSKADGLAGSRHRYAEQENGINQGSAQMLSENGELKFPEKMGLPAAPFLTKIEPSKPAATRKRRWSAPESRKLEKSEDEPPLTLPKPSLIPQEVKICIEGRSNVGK
In words: SPR.

The next test addresses T3, GST-Htt-110Q.
T3 chain: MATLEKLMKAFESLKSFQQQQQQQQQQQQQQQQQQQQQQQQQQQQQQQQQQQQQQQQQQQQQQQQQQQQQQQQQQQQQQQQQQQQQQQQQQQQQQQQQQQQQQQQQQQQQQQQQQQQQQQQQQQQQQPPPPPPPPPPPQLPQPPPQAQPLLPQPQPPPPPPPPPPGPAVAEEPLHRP
Kind of test: SPR.

In test [1] the target is human nucleolin (His-tag fusion protein) (human, UniProt P19338 1-710). Kind of test: SPR; PQBP5 analyte, nucleolin immobilized.
For test [2], the target named is T4, human fibrillarin (His-tag fusion protein) (human, UniProt P22087 1-321).
T4 chain: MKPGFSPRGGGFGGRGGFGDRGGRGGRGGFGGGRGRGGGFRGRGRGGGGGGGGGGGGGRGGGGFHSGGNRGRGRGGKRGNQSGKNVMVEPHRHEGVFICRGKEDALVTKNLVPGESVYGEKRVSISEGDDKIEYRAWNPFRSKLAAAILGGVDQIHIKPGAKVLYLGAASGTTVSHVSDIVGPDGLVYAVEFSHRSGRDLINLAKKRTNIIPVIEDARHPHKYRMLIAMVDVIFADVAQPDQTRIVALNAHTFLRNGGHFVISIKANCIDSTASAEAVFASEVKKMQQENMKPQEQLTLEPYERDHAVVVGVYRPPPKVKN
Kind of test: SPR; PQBP5 analyte, fibrillarin immobilized.

Chain of human nucleolin (His-tag fusion protein) (P19338 whole entry, the tested form may be a part): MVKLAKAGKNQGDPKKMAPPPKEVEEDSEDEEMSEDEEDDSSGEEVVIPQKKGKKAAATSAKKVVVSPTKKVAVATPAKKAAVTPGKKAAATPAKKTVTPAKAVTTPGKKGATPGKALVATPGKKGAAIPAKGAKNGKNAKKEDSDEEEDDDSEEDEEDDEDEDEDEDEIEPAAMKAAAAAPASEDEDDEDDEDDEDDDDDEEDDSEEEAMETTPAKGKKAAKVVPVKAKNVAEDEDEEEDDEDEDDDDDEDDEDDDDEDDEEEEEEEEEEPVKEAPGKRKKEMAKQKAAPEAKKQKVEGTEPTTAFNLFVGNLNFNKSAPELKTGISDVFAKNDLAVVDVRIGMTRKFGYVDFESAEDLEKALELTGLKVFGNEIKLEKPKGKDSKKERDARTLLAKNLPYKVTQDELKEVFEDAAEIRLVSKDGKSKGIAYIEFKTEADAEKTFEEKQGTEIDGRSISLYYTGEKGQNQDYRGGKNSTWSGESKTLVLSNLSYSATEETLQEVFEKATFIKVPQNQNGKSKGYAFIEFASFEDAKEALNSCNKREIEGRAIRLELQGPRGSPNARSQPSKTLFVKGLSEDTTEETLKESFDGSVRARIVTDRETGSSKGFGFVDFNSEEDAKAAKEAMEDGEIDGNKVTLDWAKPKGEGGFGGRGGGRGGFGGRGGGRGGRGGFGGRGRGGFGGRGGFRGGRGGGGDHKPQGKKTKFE

B1: PQBP5-Δ1 (protein)
chain: TYQLSLKFERCLDSEVVTFEILSDDYSKIVFLHNDRYIEFHSQSGFYYKTRIPKFGRDFSYHYPSCDLYFVGASSEVYRLNLEQGRYLNPLQTDAAENNVCDINSVHGLFATGTIEGRVECWDPRTRNRVGLLDCALNSVTADSEINSLPTISALKFNGALTMAVGTTTGQVLLYDLRSDKPLLVKDHQYGLPIKSVHFQDSLDLILSADSRIVKMWNKNSGKIFTSLEPEHDLNDVCLYPNSGMLLTANETPKMGIYYIPVLGPAPRWCSFLDNLTEELEENPESTVYDDYKFVTKKDLENLGLTHLIGSPFLRAYMHGFFMDIRLYHKVKLMVNPFAYEEYRKDKIRQKIEETRAQRVQLKKLPKVNKELALKLIEEEEEKQKSTWKKKVKSLPNILTDDRFKVMFENPDFQVDEESEEFRLLNPLVSKISEKRKKKLRLLEQQELREKEEEEEPEGKPSDAESSESSDDEKAWVEEVRKQRRLLQQEEKVKRQERLKEDQQTVLKPQFYEIKAGEEFRSFKDSATKQKLMNKTLEDRLKIEAKNGTLSVSDTTVGSKQLTFTLKRSEQQKKQQEAEKLHRQERKRLRRSAGHLKSRHKRGRSFH
modifications: Delta number assigned from the order of the constructs in the methods; initiator Met from the primer and tag omitted.
B1: the Kd – broadly, the free concentration of one partner at which half of the binding sites on the other are occupied at equilibrium, for simple one-to-one binding – with GST-Atxn1-86Q turned out to be 0.294 nM; with GST-Atxn1-33Q it was 0.355 nM.

B2: PQBP5-Δ1 (protein)
chain: TYQLSLKFERCLDSEVVTFEILSDDYSKIVFLHNDRYIEFHSQSGFYYKTRIPKFGRDFSYHYPSCDLYFVGASSEVYRLNLEQGRYLNPLQTDAAENNVCDINSVHGLFATGTIEGRVECWDPRTRNRVGLLDCALNSVTADSEINSLPTISALKFNGALTMAVGTTTGQVLLYDLRSDKPLLVKDHQYGLPIKSVHFQDSLDLILSADSRIVKMWNKNSGKIFTSLEPEHDLNDVCLYPNSGMLLTANETPKMGIYYIPVLGPAPRWCSFLDNLTEELEENPESTVYDDYKFVTKKDLENLGLTHLIGSPFLRAYMHGFFMDIRLYHKVKLMVNPFAYEEYRKDKIRQKIEETRAQRVQLKKLPKVNKELALKLIEEEEEKQKSTWKKKVKSLPNILTDDRFKVMFENPDFQVDEESEEFRLLNPLVSKISEKRKKKLRLLEQQELREKEEEEEPEGKPSDAESSESSDDEKAWVEEVRKQRRLLQQEEKVKRQERLKEDQQTVLKPQFYEIKAGEEFRSFKDSATKQKLMNKTLEDRLKIEAKNGTLSVSDTTVGSKQLTFTLKRSEQQKKQQEAEKLHRQERKRLRRSAGHLKSRHKRGRSFH
modifications: Delta number assigned from the order of the constructs in the methods; initiator Met from the primer and tag omitted. Exon 1 with the polyQ tract (18-38, 21Q) repeated to 110Q, as in the assayed protein name. The plasmid is called 103Q, so the repeat count is ambiguous. GST omitted.
Consider B2, for which, in the test with GST-Htt-110Q, the Kd stood at 2.11 nM.

B3: full-length human PQBP5 (His-tag fusion protein) (natural protein)
chain: MQVSSLNEVKIYSLSCGKSLPEWLSDRKKRALQKKDVDVRRRIELIQDFEMPTVCTTIKVSKDGQYILATGTYKPRVRCYDTYQLSLKFERCLDSEVVTFEILSDDYSKIVFLHNDRYIEFHSQSGFYYKTRIPKFGRDFSYHYPSCDLYFVGASSEVYRLNLEQGRYLNPLQTDAAENNVCDINSVHGLFATGTIEGRVECWDPRTRNRVGLLDCALNSVTADSEINSLPTISALKFNGALTMAVGTTTGQVLLYDLRSDKPLLVKDHQYGLPIKSVHFQDSLDLILSADSRIVKMWNKNSGKIFTSLEPEHDLNDVCLYPNSGMLLTANETPKMGIYYIPVLGPAPRWCSFLDNLTEELEENPESTVYDDYKFVTKKDLENLGLTHLIGSPFLRAYMHGFFMDIRLYHKVKLMVNPFAYEEYRKDKIRQKIEETRAQRVQLKKLPKVNKELALKLIEEEEEKQKSTWKKKVKSLPNILTDDRFKVMFENPDFQVDEESEEFRLLNPLVSKISEKRKKKLRLLEQQELREKEEEEEPEGKPSDAESSESSDDEKAWVEEVRKQRRLLQQEEKVKRQERLKEDQQTVLKPQFYEIKAGEEFRSFKDSATKQKLMNKTLEDRLKIEAKNGTLSVSDTTVGSKQLTFTLKRSEQQKKQQEAEKLHRQERKRLRRSAGHLKSRHKRGRSFH
Turning to B3, the Kd with GST-Atxn1-86Q is 0.179 nM; in the test with GST-Atxn1-33Q, 0.342 nM; in test [1], 0.447 nM; in test [2] it was 745 nM.

B4: full-length human PQBP5 (His-tag fusion protein) (natural protein)
chain: MQVSSLNEVKIYSLSCGKSLPEWLSDRKKRALQKKDVDVRRRIELIQDFEMPTVCTTIKVSKDGQYILATGTYKPRVRCYDTYQLSLKFERCLDSEVVTFEILSDDYSKIVFLHNDRYIEFHSQSGFYYKTRIPKFGRDFSYHYPSCDLYFVGASSEVYRLNLEQGRYLNPLQTDAAENNVCDINSVHGLFATGTIEGRVECWDPRTRNRVGLLDCALNSVTADSEINSLPTISALKFNGALTMAVGTTTGQVLLYDLRSDKPLLVKDHQYGLPIKSVHFQDSLDLILSADSRIVKMWNKNSGKIFTSLEPEHDLNDVCLYPNSGMLLTANETPKMGIYYIPVLGPAPRWCSFLDNLTEELEENPESTVYDDYKFVTKKDLENLGLTHLIGSPFLRAYMHGFFMDIRLYHKVKLMVNPFAYEEYRKDKIRQKIEETRAQRVQLKKLPKVNKELALKLIEEEEEKQKSTWKKKVKSLPNILTDDRFKVMFENPDFQVDEESEEFRLLNPLVSKISEKRKKKLRLLEQQELREKEEEEEPEGKPSDAESSESSDDEKAWVEEVRKQRRLLQQEEKVKRQERLKEDQQTVLKPQFYEIKAGEEFRSFKDSATKQKLMNKTLEDRLKIEAKNGTLSVSDTTVGSKQLTFTLKRSEQQKKQQEAEKLHRQERKRLRRSAGHLKSRHKRGRSFH
modifications: Exon 1 with the polyQ tract (18-38, 21Q) repeated to 110Q, as in the assayed protein name. The plasmid is called 103Q, so the repeat count is ambiguous. GST omitted.
The molecule B4 gave a Kd with GST-Htt-110Q of 0.00362 nM.

B5: PQBP5-Δ5 (protein)
chain: MQVSSLNEVKIYSLSCGKSLPEWLSDRKKRALQKKDVDVRRRIELIQDFEMPTVCTTIKVSKDGQYILATGTYKPRVRCYDTYQLSLKFERCLDSEVVTFEILSDDYSKIVFLHNDRYIEFHSQSGFYYKTRIPKFGRDFSYHYPSCDLYFVGASSEVYRLNLEQGRYLNPLQTDAAENNVCDINSVHGLFATGTIEGRVECWDPRTRNRVGLLDCALNSVTADSEINSLPTISALKFNGALTMAVGTTTGQVLLYDLRSDKPLLVKDHQYGLPIKSVHFQDSLDLILSADSRIVKMWNKNSGKIFTSLEPEHDLNDVCLYPNSGMLLTANETPKMGIYYIPVLGPAPRWCSFLDNLTEELEENPESTVYDDYKFVTKKDLENLGLTHLIGSPFLRAYMHGFFMDIRLYHKVKLMVNPFAYEEYRKDKIRQKIEETRAQRVQLKKLPKVNKELALKLIEEEEEKQKSTWKKKVKSLPNILT
modifications: Delta number assigned from the order of the constructs in the methods (fifth: 1-481, lacking NUC153); tag omitted. Exon 1 with the polyQ tract (18-38, 21Q) repeated to 110Q, as in the assayed protein name. The plasmid is called 103Q, so the repeat count is ambiguous. GST omitted.
In turn, B5 showed a Kd with GST-Htt-110Q of 0.424 nM.
